Key:
[1] = system: N[C@@H](CCC(=O)O)C(=O)O; assay: purified protein, by the assay type; settings: other: forward assay
[2] = system: O=C(O)CCC(=O)C(=O)O; assay: purified protein, by the assay type; settings: other: reverse assay
[3] = system: O=C(O)C1=N[C@H](C(=O)O)CCC1; assay: purified protein, by the assay type; settings: other: forward assay
[4] = system: N[C@@H](CCC[C@H](N)C(=O)O)C(=O)O; assay: purified protein, by the assay type; settings: other: reverse assay
[5] = system: N[C@@H](CCC(=O)O)C(=O)O; assay: Quantitative forward and reverse assays of purified LL-DAP transaminases (Example III); type: biochemical, Desulfitobacterium hafniense DCB-2; settings: other: forward assay
Procedure: (§1) This plasmid was transformed into E. coli BL21-CodonPlus®-RIPL for expression and purification of the recombinant protein.
(§2) For protein expression the E. coli strains were grown on LB at 37° C. to an OD600 nm of 0.5 and protein expression was then induced with 1 mM IPTG for 4 hr at 25° C. Cells were lysed by sonication in a solution of 50 mM sodium phosphate and 300 mM NaCl (pH 8.0). Metabolites in the extract were removed by buffer exchange using an Amicon Ultra 30,000 MWCO ultrafilter and sodium phosphate/NaCl buffer, and the concentrated soluble protein sample was used for measurement of enzyme activity as an initial assessment of enzyme function. When the recombinant protein was to be purified a larger cell culture was grown and lysed as described above, but the buffer exchange step was not carried out. […] The pure protein was then concentrated in an Amicon Ultra 30,000 MWCO ultrafilter, replacing the elution buffer with 100 mM HepesKOH, pH 7.6.

[6] = system: O=C(O)C1=N[C@H](C(=O)O)CCC1; assay: as above; type: biochemical, Desulfitobacterium hafniense DCB-2; settings: other: forward assay
Procedure: as §1, §2

Substance | Km ([1]; pH 7.5, 30° C., apparent Km) | Km ([2]; pH 7.5, 30° C., apparent Km, pH 7.5, 30.0 °C) | Km ([3]; pH 7.5, 30° C., apparent Km) | Km ([4]; pH 7.5, 30° C., apparent Km) | Km [2] | Km [4] | Km [5] | Km [6] | Km [1] | Km [3]
Chlamydia trachomatis LL-DAP aminotransferase CT390 (ct390), His-Tag fusion, SEQ ID NO: 9 (Chlamydia trachomatis D/UW-3/CX) | 1.0 mM | 0.65 mM | 0.2 mM | 0.02 mM |  |  |  |  |  | 
Desulfitobacterium hafniense LL-DAP transaminase Dhaf_3890 (Desulfitobacterium hafniense DCB-2) |  |  |  |  | 0.3 mM | 0.041 mM | 0.8 mM | 0.07 mM |  | 
Methanothermobacter thermautotrophicus LL-DAP transaminase MTH52 (Methanothermobacter thermautotrophicus str. Delta H) |  |  |  |  |  | 0.03 mM |  |  | 3.0 mM | 0.075 mM
Synechocystis sp. PCC 6803 LL-DAP transaminase sll0480 (Synechocystis sp. PCC 6803 substr. Kazusa) |  |  |  |  | 0.31 mM | 0.017 mM |  |  | 1.5 mM | 0.013 mM

— patent US20090158455A1, “COMPOSITIONS AND METHODS FOR MODULATING LYSINE PRODUCTION” (priority 2005, published 2009)
